Read-outs that look alike come from different tables or passages of the source.
B1: WT: wild-type murine erythroid 5-aminolevulinate synthase (mALAS-2) (protein, UniProt P08680 50-587, looked up)
5-aminolevulinate synthase, …: QIHLKATKAGGDSPSWAKSHCPFMLSELQDRKSKIVQRAAPEVQEDVKTFKTDLLSTMDSTTRSHSFPSFQEPEQTEGAVPHLIQNNMTGSQAFGYDQFFRDKIMEKKQDHTYRVFKTVNRWANAYPFAQHFSEASMASKDVSVWCSNDYLGISRHPRVLQAIEETLKNHGAGAGGTRNISGTSKFHVELEQELAELHQKDSALLFSSCFVANDSTLFTLAKLLPGCEIYSDAGNHASMIQGIRNSGAAKFVFRHNDPGHLKKLLEKSDPKTPKIVAFETVHSMDGAICPLEELCDVAHQYGALTFVDEVHAVGLYGARGAGIGERDGIMHKLDIISGTLGKAFGCVGGYIASTRDLVDMVRSYAAGFIFTTSLPPMVLSGALESVRLLKGEEGQALRRAHQRNVKHMRQLLMDRGFPVIPCPSHIIPIRVGNAALNSKICDLLLSKHSIYVQAINYPTVPRGEELLRLAPSPHHSPQMMENFVEKLLLAWTEVGLPLQDVSVAACNFCHRPVHFELMSEWERSYFGNMGPQYVTTYA

Key:
[1] = test system: H1299 lung carcinoma cells; settings: added to cells infected with ALAS construct; cited from earlier work
[2] = ALAS steady-state activity, continuous spectrophotometric assay; type: biochemical; settings: 20° C.
Experimental: ALAS steady-state activity of the ALAS active site loop variants was determined at 20° C. using a continuous spectrophotometric assay as described previously for wild-type ALAS (Hunter & Ferreira. A continuous spectrophotometric assay for 5-aminolevulinate synthase that utilizes substrate cycling. Anal Biochem. 1995 Apr. 10; 226(2):221-4). Rapid scanning stopped-flow measurements were performed using a model RSM-100 stopped-flow spectrophotometer (OLIS, Inc.). This instrument has a dead-time of approximately 2-ms and an observation chamber path length of 4 mm Spectral scans covering a wavelength range of 300-570 nm were collected at a rate of 1000 scans/s and then averaged to 62 scans/s in order to reduce the time course data files to an appropriate size for global fit analyses. The temperature of the syringes and the stopped-flow cell compartment was maintained at 20° C. by an external water bath. Pre-steady-state kinetic reactions of the variant enzymes were examined under single turnover conditions, using final concentrations of 60 μM enzyme, 120 mM glycine and 10 μM succinyl-CoA in 100 mM HEPES, pH 7.5 and 10% (v/v) glycerol as previously described (Hunter, & Ferreira. Pre-steady-state reaction of 5-aminolevulinate synthase. Evidence for a rate-determining product release J Biol Chem. 1999 Apr. 30; 274(18):12222-8). Single turnover data were evaluated using either a two- or three-kinetic-step mechanism as described by Equations 1 and 2, respectively (Hunter, & Ferreira. Pre-steady-state reaction of 5-aminolevulinate synthase. Evidence for a rate-determining product release J Biol Chem. 1999 Apr. 30; 274(18):12222-8).
(§1) The ALAS steady-state kinetic parameters of wild-type ALAS and the SS2 variant activity assays were also determined at 15, 25, and 35° C.

[3] = 37 C, pH 7.2; cited from earlier work
[4] = Temperature dependence of steady-state kinetics, Arrhenius plot, thermodynamic activation parameters; type: biochemical
Experimental: FIG. 9 is a graph showing the thermal dependence of the SS2 variant-catalyzed reaction. kcat values were calculated by performing steady-state kinetics at different temperatures. (A) an Arrhenius plot depicting the difference between the wild-type ([…]) and the SS2 variant-catalyzed (◯) reactions at 288, 293, 298, 303 and 308K. Error bars are plotted over and partially obscured by the data points.
as §1
The natural log of the calculated values for the turnover numbers (lnkcat) were plotted vs. the inverse of temperature and the data were fit to the Arrhenius equation.
where Ea is the activation energy, R is the universal gas constant, T is the absolute temperature, and A is the frequency factor. The determined activation energies were then used to calculate the thermodynamic activation parameters, ΔH, ΔG and ΔS, as previously described (Hunter, et al. Transient kinetic studies support refinements to the chemical and kinetic mechanisms of aminolevulinate synthase. J Biol. Chem. 2007 Aug. 10; 282(32):23025-35. Epub 2007 May 7). The turnover numbers for each enzyme were used to construct an Arrhenius plot, from which the thermodynamic activation parameters were derived seen in Table 4.

[5] = Pre-steady-state single turnover reactions, rapid scanning stopped-flow (quinonoid intermediate, 510 nm); type: biochemical; settings: 20° C.
Experimental: FIGS. 5(A) through (D) are graphs showing the single turnover reactions of isolated hyperactive ALAS variants. The pre-steady state kinetic parameters were determined under single turnover conditions (60 μM enzyme-glycine complex, 10 μM succinyl-CoA) at 20° C. by monitoring absorbance changes at 510 nm. The variant catalyzed reactions A4, D8, G7, A8, (panels A-D, respectively) resemble that of the wild-type enzyme in that quinonoid lifetime is observed as a single step of quinonoid intermediate formation and 2-step process of decay (Hunter, & Ferreira. Pre-steady-state reaction of 5-aminolevulinate synthase. Evidence for a rate-determining product release J Biol. Chem. 1999 Apr. 30; 274(18):12222-8).
FIGS. 6(A) through (D) are graphs showing the single turnover reactions of isolated hyperactive ALAS variants. The pre-steady state kinetic parameters were determined under single turnover conditions (60 μM enzyme-glycine complex, 10 μM succinyl-CoA) at 20° C. by monitoring absorbance changes at 510 nm. […]
FIG. 7 is a graph showing the SS2 variant catalyzed reaction. Equilibrium and pre-steady state kinetic parameters for the SS2 variant were determined at 20° C. by monitoring changes in absorbance at 510 nm associated with quinonoid intermediate lifetime, under single-turnover conditions.
ALAS steady-state activity of the ALAS active site loop variants was determined at 20° C. using a continuous spectrophotometric assay as described previously for wild-type ALAS (Hunter & Ferreira. A continuous spectrophotometric assay for 5-aminolevulinate synthase that utilizes substrate cycling. Anal Biochem. 1995 Apr. 10; 226(2):221-4). […] Single turnover data were evaluated using either a two- or three-kinetic-step mechanism as described by Equations 1 and 2, respectively (Hunter, & Ferreira. Pre-steady-state reaction of 5-aminolevulinate synthase. Evidence for a rate-determining product release J Biol Chem. 1999 Apr. 30; 274(18):12222-8). […]

| Molecule | Potentiation of photosensitivity [1] | Kcat [2] | Km ([2]; read-out: Km^Gly) | Km ([2]; read-out: Km^SCoA) | Catalytic efficiency for the substrate glycine [3] | ΔG^‡ (30° C.) ([4]; 30° C.) | ΔH^‡ (30° C.) ([4]; 30° C.) | ΔS^‡ (30° C.) ([4]; 30° C.) | Slope/(K) of Arrhenius plot ([4]; 288-308 K) | Ea, activation energy ([4]; 288-308 K, listed as WTALAS) | Q10 for the catalytic rate constant ([4]; steady-state temperature dependence) | Qf, rate for quinonoid intermediate formation ([5]; 60 μM enzyme, 120 mM glycine, 10 μM succinyl-CoA) | Qd1, rate for first step of quinonoid intermediate decay [5] | Qd2, rate for second step of quinonoid intermediate decay [5] |
| --- | --- | --- | --- | --- | --- | --- | --- | --- | --- | --- | --- | --- | --- | --- |
| CC(=O)N(O)CCCCCNC(=O)CCC(=O)N(O)CCCCCNC(=O)CCC(=O)N(O)CCCCCN [desferrioxamine] | two-fold |  |  |  |  |  |  |  |  |  |  |  |  |  |
| B1 |  | 0.02 ± 0.01 s⁻¹ | 14 ± 2 mM | 0.011 ± 0.001 mM | 3.4 mM⁻¹ min⁻¹ | 19 kcal/mol | 48 kcal/mol | −95 cal/mol · K | −24000 K | 48 kcal/mol | seven | 0.8 s⁻¹ | 0.53 s⁻¹ | 0.01 s⁻¹ |

Source: patent US20100248328A1, “HYPERACTIVE VARIANTS OF 5-AMINOLEVULINATE SYNTHASE AND METHODS OF USE” (UNIVERSITY OF SOUTH FLORIDA, priority 2005, published 2010)
